# Test results published in the RNAGym collection of RNA variant scans (doi:10.1073/pnas.2313332121).
# B1: TPR t1 (parent)
# chain: GACCAAUCUGCCCUCAGAGCUCGAGAACAUCUUCGGAUGCAGAGGAGGCAGGCUUCGGUGGCGCGAUAGCGCCAACGUCCUCAACCUCCAAUGCAUCCCACCACAUGAUGAUGCCUGAAGAGCCUUGGUUUUUUG
# Variants of: B1
# Test: polymerase ribozyme fitness, log enrichment relative to wild type (log ratio); higher = more active; in vitro selection for triplet polymerase activity
# In short: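 Frozen incubation at −7 °C formed the core of a single, triplicate in vitro selection round applied to PCR-built, transcribed mutant libraries of each subunit of a heterodimeric triplet polymerase ribozyme. Extended constructs were gel-excised, captured with streptavidin beads and amplified by RT-PCR, and input and output libraries were Illumina-sequenced with a filter of ≥10 input reads and ≥1 read per output. Fitness is the logarithm of genotype enrichment relative to wild-type enrichment, with inverse-variance-weighted replicate averaging, and the logarithm is base 2.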
row,Variant,polymerase ribozyme fitness (log ratio)
1,U55C G71A A90G G113U,-2.42
2,C53U C80A U131A,-5.6
3,U54A C72U C97U,-1.24
4,U54G G71A G120C,-6.71
5,C56G U87C,-0.336
6,U54G C80G C123U,-4.41
7,C56U C104U,0.166
8,U55C G61U A90G U112C A119U,0.196
9,C56G G71U A121C,-2.41
10,C53U U78G C79A,-1.4
11,U54G G71U C79A,-5.67
12,C56U A75U C86U,-0.18
13,C56G C64U C123U,0.0926
14,C56A G127A,-1.47
15,U55A C73A,0.5
16,C56A G63A A91C,-5.68
17,U55G C70G,-2.34
18,C53U C102U C114A,-4.76
19,C56A C97U G113U,-4.2
20,C56G C89G U96A,-2.31
21,U55C G69U A90G U112C A119U,0.0646
22,U54C C82U U106A U109A G135U,-4.59
23,C56A U106A,-0.695
24,C56U C89A,-1.04

row,Variant,polymerase ribozyme fitness (log ratio)
1,U54A G69U,-0.707
2,U54A G69C,-1.12
3,U54C C56A C85G G117A,-4.42
4,C53U C89A C115U A119G,0.658
5,U54C G77U C79A C88U,-1.68
6,U54A C124A G128U,-0.136
7,C56G A111C A119U,-1.72
8,U54A U55A G61A A74G,-1.53
9,C56A C97U,-1.33
10,C53U C124G,1.61
11,C53U C124U,1.92
12,C53U G57C U78C C114A C123U,-3.58
13,C56G C94G U112A,-0.000426
14,U55C G57U A66C C123G U132A,0.759
15,C56A G107A A121C,-4.32
16,U55C U106G,-1.88
17,C53U C79G U81C,-1.9
18,C56G A84G G120A,-0.771
19,C56A A83G,-1.6
20,C56U C86U G117A,-1.37
21,U55G G61A C73U U81A C114A A119U,-3.58
22,U54G G60C U112A G117C,-5
23,C56U G128A,-1.64
24,C53U G57U A121C,1.4

row,Variant,polymerase ribozyme fitness (log ratio)
1,U54G C101G C115G U116A,-6.37
2,C56G G120C,0.755
3,U55A C114U,-2.35
4,U54A G127C,-0.488
5,C56U U92C,-0.619
6,U54A A119G G135U,0.414
7,C56U A111U,-1.9
8,U54G G60A U92A G107C G117A,-6.96
9,U55C C56U G69C C85U,-4.97
10,U55G U78A,-0.34
11,U55G G117U,-2.73
12,C53U C86G C89G C97U C124U,-1.92
13,U55G A74U U81A C85G G122A,-4.4
14,C56G C88U C94A G110U,-4.78
15,C56G C70A A118U,-2.37
16,U54G A95U,-0.988
17,U54A C64U,-0.112
18,U55C C62U C98A,-6.18
19,U54G C82A,-0.235
20,C56A A118G,-0.557
21,U54C G60U U133G,-0.398
22,U54C G61U G71U C82U A83U C114U,-5.85
23,U55A C56A,-0.0197
24,C53U G69A A91U G110A G113U G128U,-5.88

row,Variant,polymerase ribozyme fitness (log ratio)
1,U55A C88U,0.678
2,C56G C99A,-6.98
3,C56A C76G,0.138
4,U55A C64A C115G G128A,-6.49
5,C56U U112C G117C G120U G127C U132A,-4.94
6,C53U U78C G120C,-0.0303
7,C53U G60A C73A U106G C123G U126A,-2.6
8,C56A C124A G127A,0.497
9,C53U C85U,-1.78
10,C56A C64U C124U G128A,-1.71
11,C56U A90G U125A,-0.318
12,U55A C85A U112G,-2.37
13,U54A A66G C70G C124U U129G,-6.53
14,C53U G71U,-0.192
15,C53U G71C,-0.133
16,C56A A90C,-1.57
17,C56A G57C,0.379
18,U55C C82G A91C A105U C123G,-6.04
19,C56U G61C G117C,-4.62
20,C56G A74U C86A,-2.4
21,C56U C101G,-2.07
22,C56U G71A,-2.84
23,C56U G71U,-1.85
24,U54A A95U,-0.632

row,Variant,polymerase ribozyme fitness (log ratio)
1,U54C C79G U125C,-4.66
2,C56U G113U G120A,-3.03
3,C56U G61A,-4.41
4,C56U C80U,-1.17
5,U55C G57U A66C,0.353
6,U55G C73G,1
7,U54C G57C U112C,1.77
8,C56A C72A,-0.579
9,U54A C79A G93U C114U G117A,-6.48
10,C56U A83G,-0.676
11,C56A G120U,-0.119
12,C53U G60C G120A,0.0788
13,C56A G60A G69C,-3.21
14,U54G C80U U133A,-0.863
15,C56U A90G G93C,-1.38
16,C53U C114A,-1.2
17,C56G C62G,-3.35
18,C56U C124U U133G,1.14
19,U54A C64U C72U C86A,-0.948
20,C56A G69U C73U C124A,1.14
21,U54A G60C,-0.566
22,U54A G61U C62U U96G,-6.42
23,U54C C98U A121U,1.37
24,C56U G77A C94U C102A,-2.87

row,Variant,polymerase ribozyme fitness (log ratio)
1,C56U G61U G93A A111U U116C,-4.78
2,C56U G60U U87A,-3.76
3,C56G A74U,-0.327
4,C56U C62U C101G U133A,-3.24
5,U55C C85A G113C,-3.66
6,C56U C62G U112G,-5.4
7,C56G C62U C64U C82A C89U C123A,-3.52
8,U55A U59C U78G C82A G110A,-2.6
9,U55G C56U C88G,-2.34
10,C56U U129A,-1.15
11,U55C G58A G60U U78A G110A,-1.19
12,C53U C73A,-0.168
13,C53U C73U,-0.178
14,C56U C72U,-0.11
15,C56U C72A,-0.0735
16,C56U U96G C101A G113C,-3.97
17,C56U U106A,0.0907
18,C56A C70U U92G,-4.08
19,C56G U96A,-0.238
20,U54A C89G,-1.31
21,U54G G93A A111U,-3.35
22,C56A G57U U78C G113C,-3.22
23,U54C C70U,-0.253
24,U55G A100C,-0.346

row,Variant,polymerase ribozyme fitness (log ratio)
1,U55C C73A C76G A121U,0.355
2,C56A G107A,-3.75
3,C56U C115G,-2.56
4,U55G G69C A119U G127C,-1.89
5,U54G C85G U133A,-1.09
6,U55A G63A U78A,-0.969
7,C56G A75G U109C,-7.14
8,C53U G93A A105C G117U,-6.56
9,C56A G93U,-2.21
10,C53U G69A,-2.64
11,C56A C99A,-6.08
12,C53U U112G,-0.00138
13,U54A C56U,-0.589
14,C56U C86U C124U U131A,1.32
15,U54A G57U U78A A95U G120U,-0.728
16,C56A G63U G77C C115G,-4.37
17,U55C A66U A75U,-0.518
18,U55G A121C,0.81
19,C56U C88U C114A G120A,-1.81
20,C56G C94G,-1.87
21,C56G G110A U116G,-3.62
22,U54C C94A G113U,-3.83
23,C56U C76A,-2.9
